How the values were obtained:
[1] = tested on: liver graft, DA rat to LEW rat (acute rejection); test: Immunosuppressive activity of the IDO protein using acute rejection model (sympatric liver transplantation, DA rat to LEW rat); format: in vivo; settings: for average days of take (survival): consecutive days through the tail vein after liver transplantation, N = 6
Experimental: As for the animals, male LEW and DA rats (200-350 g) were used. In the administration of the aforementioned gene therapeutic agents, immediately after Ringer's Solution (Fuso Pharmaceutical Co. Ltd.) was used in the operation and was allowed to perfuse the portal veins and the liver, the respective agents were infused from the portal veins into the liver at a speed of 5 ml/min. After allowing to stand in the culture solution for 30 minutes, the liver into which the gene had been transferred was grafted to the LEW rat.
A model similar to that in Example 2 was used to judge the therapeutic effect of the IDO protein prepared in Example 5. The IDO protein was administered consecutive days through the tail vein immediately after the liver transplantation at a dosage of 300 μg/rat.

[2] = tested on: spleen cells derived from PVG rat and mitomycin-treated DA rat; test: Lymphocyte mixed culture test (BrdU incorporation); format: cell-based; settings: 4 days culture, BrdU 10 μM for last 16 hours; FIG. 2
Experimental: To study the immunosuppressive activity of the human IDO protein prepared in Example 10, a lymphocyte mixed culture test was carried out. The spleen cells derived from a non-treated PVG rat and the spleen cells derived from a DA rat treated with 25 μg/ml of mitomycin (SIGMA-Aldrich Corporation) were seeded on a U bottom 96-well plate (NUNC Inc.) at 5×10^4/well and at 8×10^6/well, respectively. The IDO protein was then added and culturing was done for 4 days. Sixteen hours before the finish of culturing 5-bromo-2′deoxyuridine (BrdU) was added at a final concentration of 10 μM. The amount of BrdU incorporated into the intracellular DNA was quantified using a BrdU Labeling & Detection Kit III (Roche Diagnostics Inc.).

B1: IDO protein: Recombinant murine indoleamine 2,3-dioxygenase protein prepared in Example 5 from E. coli (protein, UniProt P28776 1-407, looked up)
Indoleamine 2,3-dioxygenase 1: MALSKISPTEGSRRILEDHHIDEDVGFALPHPLVELPDAYSPWVLVARNLPVLIENGQLREEVEKLPTLSTDGLRGHRLQRLAHLALGYITMAYVWNRGDDDVRKVLPRNIAVPYCELSEKLGLPPILSYADCVLANWKKKDPNGPMTYENMDILFSFPGGDCDKGFFLVSLLVEIAASPAIKAIPTVSSAVERQDLKALEKALHDIATSLEKAKEIFKRMRDFVDPDTFFHVLRIYLSGWKCSSKLPEGLLYEGVWDTPKMFSGGSAGQSSIFQSLDVLLGIKHEAGKESPAEFLQEMREYMPPAHRNFLFFLESAPPVREFVISRHNEDLTKAYNECVNGLVSVRKFHLAIVDTYIMKPSKKKPTDGDKSEEPSNVESRGTGGTNPMTFLRSVKDTTEKALLSWP
modifications: recombinant, E. coli
- average days of take (survival) ([1]; 50 μg/rat): 10.6 days
- average days of take (survival) ([1]; 300 μg/rat): >30 days
- days of take of the liver graft (in words) ([1]; 300 μg/rat, tail vein, consecutive days): marked increase
- immunosuppressive activity (amount of BrdU incorporated into intracellular DNA) [2]: immunosuppressive effect was observed

Source: patent publication US20030139361A1, “Drug for gene therapy” (priority 2000, published 2003)
